This data set concerns the molecule itself. Kind of data set: native gel or EMSA.

From PMC4615758 (RNA Biology, 2014) come the findings set out here.

B1: recombinant full size LARP6 purified from E. coli (natural protein)
chain: MAQSGGEARPGPKTAVQIRVAIQEAEDVDELEDEEEGAETRGAGDPARYLSPGWGSASEEEPSRGHSGTTASGGENEREDLEQEWKPPDEELIKKLVDQIEFYFSDENLEKDAFLLKHVRRNKLGYVSVKLLTSFKKVKHLTRDWRTTAHALKYSVVLELNEDHRKVRRTTPVPLFPNENLPSKMLLVYDLYLSPKLWALATPQKNGRVQEKVMEHLLKLFGTFGVISSVRILKPGRELPPDIRRISSRYSQVGTQECAIVEFEEVEAAIKAHEFMITESQGKENMKAVLIGMKPPKKKPAKDKNHDEEPTASIHLNKSLNKRVEELQYMGDESSANSSSDPESNPTSPMAGRRHAATNKLSPSGHQNLFLSPNASPCTSPWSSPLAQRKGVSRKSPLAEEGRLNCSTSPEIFRKCMDYSSDSSVTPSGSPWVRRRRQAEMGTQEKSPGTSPLLSRKMQTADGLPVGVLRLPRGPDNTRGFHGHERSRACV
Turning to B1, the binding result is on record as “binds”.
